Columns and labels:
[1] = biological target: T1, Complex I with gH W168C, on virions of HB1 - mutant viruses 2 and 5 (HCMV, UniProt P12824 24-743; P16832 31-278; P16837 28-171; F5HCP3 26-214; F5HET4 19-129); test: cell-based or functional assay
T1 chain 1: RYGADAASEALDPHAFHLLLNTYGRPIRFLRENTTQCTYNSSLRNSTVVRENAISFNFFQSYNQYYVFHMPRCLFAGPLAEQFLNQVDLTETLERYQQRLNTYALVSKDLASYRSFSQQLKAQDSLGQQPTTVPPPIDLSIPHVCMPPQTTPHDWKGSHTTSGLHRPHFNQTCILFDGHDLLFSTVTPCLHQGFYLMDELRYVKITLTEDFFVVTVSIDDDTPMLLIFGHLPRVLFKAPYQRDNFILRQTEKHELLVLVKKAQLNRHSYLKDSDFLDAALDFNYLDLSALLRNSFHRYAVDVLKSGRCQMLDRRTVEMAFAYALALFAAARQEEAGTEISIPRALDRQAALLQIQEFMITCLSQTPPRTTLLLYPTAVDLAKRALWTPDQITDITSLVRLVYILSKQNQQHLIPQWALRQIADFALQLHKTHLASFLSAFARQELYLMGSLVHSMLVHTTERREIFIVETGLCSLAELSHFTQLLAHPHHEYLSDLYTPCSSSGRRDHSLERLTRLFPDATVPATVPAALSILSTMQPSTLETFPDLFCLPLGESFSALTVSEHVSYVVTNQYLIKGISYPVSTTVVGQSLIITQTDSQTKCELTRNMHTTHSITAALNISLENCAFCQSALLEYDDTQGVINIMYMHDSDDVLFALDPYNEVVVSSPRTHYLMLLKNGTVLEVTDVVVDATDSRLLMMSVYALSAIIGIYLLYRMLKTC
T1 chain 2: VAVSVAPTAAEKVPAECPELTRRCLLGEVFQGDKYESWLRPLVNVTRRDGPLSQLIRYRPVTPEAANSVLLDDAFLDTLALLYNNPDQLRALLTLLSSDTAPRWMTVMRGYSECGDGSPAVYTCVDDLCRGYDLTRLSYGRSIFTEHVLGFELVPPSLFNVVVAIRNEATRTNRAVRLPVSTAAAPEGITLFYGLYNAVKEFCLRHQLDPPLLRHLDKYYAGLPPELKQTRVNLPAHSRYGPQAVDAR
T1 chain 3: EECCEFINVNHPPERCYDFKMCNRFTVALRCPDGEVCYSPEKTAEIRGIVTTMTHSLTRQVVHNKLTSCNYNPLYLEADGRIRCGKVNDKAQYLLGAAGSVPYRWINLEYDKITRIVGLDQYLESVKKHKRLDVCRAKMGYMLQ
T1 chain 4: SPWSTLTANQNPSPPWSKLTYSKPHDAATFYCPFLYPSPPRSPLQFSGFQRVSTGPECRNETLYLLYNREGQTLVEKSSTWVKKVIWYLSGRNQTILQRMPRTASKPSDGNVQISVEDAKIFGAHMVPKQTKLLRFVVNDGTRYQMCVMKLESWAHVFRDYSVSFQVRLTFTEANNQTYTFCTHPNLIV
T1 chain 5: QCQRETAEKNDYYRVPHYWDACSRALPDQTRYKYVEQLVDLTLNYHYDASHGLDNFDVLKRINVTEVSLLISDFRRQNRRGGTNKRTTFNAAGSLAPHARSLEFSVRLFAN

[2] = biological target: T2, Complex I with gH P171H, on virions of HB1 - mutant virus 1 (HCMV, UniProt P12824 24-743; P16832 31-278; P16837 28-171; F5HCP3 26-214; F5HET4 19-129); test: cell-based or functional assay
T2 chain 1: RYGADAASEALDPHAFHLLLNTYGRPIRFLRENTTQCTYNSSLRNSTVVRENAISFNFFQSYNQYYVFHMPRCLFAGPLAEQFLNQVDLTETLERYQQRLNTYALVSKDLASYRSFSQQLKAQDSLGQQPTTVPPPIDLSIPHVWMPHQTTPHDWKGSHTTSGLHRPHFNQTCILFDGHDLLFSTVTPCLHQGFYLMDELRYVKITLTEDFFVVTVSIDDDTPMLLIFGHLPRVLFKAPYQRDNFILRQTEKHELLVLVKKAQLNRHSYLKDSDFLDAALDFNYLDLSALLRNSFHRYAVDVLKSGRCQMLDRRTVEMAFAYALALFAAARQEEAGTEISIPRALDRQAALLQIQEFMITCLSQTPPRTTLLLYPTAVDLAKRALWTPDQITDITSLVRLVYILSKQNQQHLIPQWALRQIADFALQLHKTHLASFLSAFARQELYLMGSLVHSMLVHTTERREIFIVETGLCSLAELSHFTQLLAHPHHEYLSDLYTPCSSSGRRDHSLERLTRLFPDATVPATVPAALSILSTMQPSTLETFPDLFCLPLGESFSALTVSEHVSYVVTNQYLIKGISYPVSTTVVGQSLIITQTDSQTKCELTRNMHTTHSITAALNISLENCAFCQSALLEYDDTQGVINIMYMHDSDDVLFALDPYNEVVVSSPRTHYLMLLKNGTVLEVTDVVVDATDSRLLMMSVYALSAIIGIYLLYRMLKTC
T2 chain 2: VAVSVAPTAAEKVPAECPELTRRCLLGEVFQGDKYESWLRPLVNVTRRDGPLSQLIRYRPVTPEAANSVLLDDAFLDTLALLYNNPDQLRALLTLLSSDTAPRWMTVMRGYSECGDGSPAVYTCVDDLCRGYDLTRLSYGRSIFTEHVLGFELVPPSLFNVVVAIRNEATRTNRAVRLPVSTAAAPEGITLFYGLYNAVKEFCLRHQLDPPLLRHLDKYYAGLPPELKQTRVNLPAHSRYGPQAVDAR
T2 chain 3: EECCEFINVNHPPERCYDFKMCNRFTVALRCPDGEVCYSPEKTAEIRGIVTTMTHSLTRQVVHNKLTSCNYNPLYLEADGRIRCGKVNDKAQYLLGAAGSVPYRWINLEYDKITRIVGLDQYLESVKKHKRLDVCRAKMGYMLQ
T2 chain 4: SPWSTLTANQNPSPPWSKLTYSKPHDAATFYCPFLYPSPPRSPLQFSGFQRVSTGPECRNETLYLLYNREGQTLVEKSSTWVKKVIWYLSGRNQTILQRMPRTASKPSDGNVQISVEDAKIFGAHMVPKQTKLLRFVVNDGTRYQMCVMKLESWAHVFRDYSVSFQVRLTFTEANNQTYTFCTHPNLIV
T2 chain 5: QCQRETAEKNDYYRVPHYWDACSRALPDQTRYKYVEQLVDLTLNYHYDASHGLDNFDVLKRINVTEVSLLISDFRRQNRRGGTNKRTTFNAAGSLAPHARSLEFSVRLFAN

B1: hu8G8 (lambda4 8G8 graft and hu8G8.VH1) (antibody, V domains shown)
VH: EVQLVQSGAEVKKPGASVKVSCKASGYTFTNYGMNWVRQAPGQGLEWIGWINTYTGEPTYADDFKGRVTITRDTSTSTAYLELSSLRSEDTAVYYCARSWYYVSNYWYFDVWGQGTLVTVSS
VL: SVLTQSPSASASLGASVKLTCTLSSQHSTYTIEWYQQQPGKGPRYLMKLKKDGSHSTGDGIPDRFSGSSSGADRYLTISNLQSEDEADYYCGVGDTIKEQFVYVFGGGTKLTVLG
notes: also called hu8G8 with VH1; Humanized 8G8 with VH1
In the case of B1, the “hu8G8 EC50, neutralisation of HB1 - mutant virus 2, Data Set 1” value [1] is reported as 8 ng/mL, the “hu8G8 EC50, neutralisation of HB1 - mutant virus 2, Data Set 2” value [1] is reported as 6 ng/mL and the “hu8G8 EC50, neutralisation of HB1 - mutant virus 5, Data Set 2” value [1] is reported as 1 ng/mL. The “hu8G8 EC50, neutralisation of HB1 - mutant virus 1, Data Set 1” value [2] was 10 ng/mL and the “hu8G8 EC50, neutralisation of HB1 - mutant virus 1, Data Set 2” value [2] was 0.6 ng/mL.
